The series concerns the molecule itself. As to the kind of experiment: EPR-DEER; Q-band (34 GHz) four-pulse DEER at 50 K on MTSL-labelled XIAP; dimer concentration 15 uM; 20 mM Tris pH 7.4.

The source of these data is paper PMC6760453, “Conformational characterization of full-length X-chromosome-linked inhibitor of apoptosis protein (XIAP) through an integrated approach” (IUCrJ, 2019).

B1: XIAP C202R1 (XIAP C12A, C213G, C351S labelled with MTSL nitroxide on Cys202) (natural protein, human, UniProt P98170 1-497, looked up)
chain: MTFNSFEGSKTAVPADINKEEEFVEEFNRLKTFANFPSGSPVSASTLARAGFLYTGEGDTVRCFSCHAAVDRWQYGDSAVGRHRKVSPNCRFINGFYLENSATQSTNSGIQNGQYKVENYLGSRDHFALDRPSETHADYLLRTGQVVDISDTIYPRNPAMYSEEARLKSFQNWPDYAHLTPRELASAGLYYTGIGDQVQCFCCGGKLKNWEPGDRAWSEHRRHFPNCFFVLGRNLNIRSESDAVSSDRNFPNSTNLPRNPSMADYEARIFTFGTWIYSVNKEQLARAGFYALGEGDKVKCFHCGGGLTDWKPSEDPWEQHAKWYPGCKYLLEQKGQEYINNIHLTHSLEESLVRTTEKTPSLTRRIDDTIFQNPMVQEAIRMGFSFKDIKKIMEEKIQISGSNYKSLEVLVADLVNAQKDSMQDESSQTSLQKEISTEEQLRRLQEEKLCKICMDRNIAIVFVPCGHLVTCKQCAEAVDKCPMCYTVITFKQKIFMS
modifications: MTSL nitroxide spin label on Cys202
notes: Mutations were introduced into the WT XIAP gene; also called XIAP C202-MTSL
Turning to B1, the binding result was “binds”.
